The record followed here is publication PMC4822818, “An IRF5 Decoy Peptide Reduces Myocardial Inflammation and Fibrosis and Improves Endothelial Cell Function in Tight-Skin Mice” (PLoS ONE, 2016).

In the experiment the target is T1, Recombinant IRF5 (interferon regulatory factor 5), biotin-labeled (UniProt Q13568 1-498, biotin (EZ-Link NHS-PEG4-Biotin, ratio 1:1)).
T1 construct: Interferon regulatory factor 5 (IRF5), recombinant; also called B-IRF5; source: made and purified by Top Gene Technologies (Montreal, Quebec, Canada)
T1 sequence (looked up): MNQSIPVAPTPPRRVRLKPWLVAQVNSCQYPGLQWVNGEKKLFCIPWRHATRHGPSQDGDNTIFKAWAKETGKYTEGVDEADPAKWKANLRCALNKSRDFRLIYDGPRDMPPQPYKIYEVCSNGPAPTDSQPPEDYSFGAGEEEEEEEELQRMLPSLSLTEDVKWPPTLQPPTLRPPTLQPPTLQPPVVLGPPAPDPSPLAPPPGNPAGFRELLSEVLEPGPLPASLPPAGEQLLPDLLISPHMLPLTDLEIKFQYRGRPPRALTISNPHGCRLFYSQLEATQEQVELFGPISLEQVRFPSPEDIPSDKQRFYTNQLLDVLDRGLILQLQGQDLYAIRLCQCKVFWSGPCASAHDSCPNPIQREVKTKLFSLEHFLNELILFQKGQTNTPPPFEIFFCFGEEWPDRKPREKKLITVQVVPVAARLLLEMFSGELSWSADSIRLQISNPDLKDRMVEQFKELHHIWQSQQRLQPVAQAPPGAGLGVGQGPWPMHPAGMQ
The experiment is described as follows: BLI; Octet RED; biotin-labeled IRF5 loaded onto streptavidin biosensors in PBS for 15 min; sensors incubated in PBS with increasing concentrations of IRF5D for 10 min; n = 3. Conditions: both partners purified.

Turning to Ac-ELDWDADDIRLQIDNPD-NH2 [IRF5D (Ac-ELDWDADDIRLQIDNPD-NH2), IRF5 decoy peptide], the Kd is 3.72 µM.
